Data set [1] concerns HeLa Kyoto. The experiment in a line: melting temperature (median over replicates), in situ; higher = more thermally stable.
The subject of data set [2] is HeLa Kyoto. The experiment in a line: solubility in G1/S (NP-40 vs SDS abundance) (log2 ratio); higher = more soluble. The following applies: cell cycle stage: G1/S.
In data set [3] the test system is HeLa Kyoto. The experiment in a line: solubility change mitosis vs G1/S (difference of NP-40 vs SDS log2 ratios) (log2 ratio difference); higher = more soluble in mitosis.
Data set [4] deals with HeLa Kyoto. Nature of the data set: thermal stability score vs G1/S (z-score of summed log2 fold changes over temperatures); higher = more thermally stable than in G1/S.
Setting [5] is: cell cycle stage: early G1 (4.5 h after nocodazole release).
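Throughout, for melting temperature (median over replicates), in situ: HeLa Kyoto cells synchronized by double thymidine or nocodazole block, proteins quantified by TMT10plex mass spectrometry, three independent biological replicates.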
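Throughout, for solubility change mitosis vs G1/S (difference of NP-40 vs SDS log2 ratios): synchronized HeLa Kyoto cells (double thymidine block for G1/S, nocodazole release for mitosis), protein amounts in NP-40 versus SDS lysates quantified by mass spectrometry, three biological replicates.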
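Throughout, for solubility in G1/S (NP-40 vs SDS abundance): HeLa Kyoto cells arrested at G1/S by double thymidine block, proteins quantified by TMT10plex mass spectrometry in mild NP-40 versus SDS extracts, three biological replicates.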
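Throughout, for thermal stability score vs G1/S (z-score of summed log2 fold changes over temperatures): synchronized HeLa Kyoto cells, proteins quantified by TMT10plex mass spectrometry, three biological replicates, mitosis taken 0.5 h after nocodazole release, G1/S directly after double thymidine block.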

As for “MGNAAGSAEQPAGPAAPPPKQPAPPKQPMPAAGELEERFNRALNCMNLPPDKVQLLSQYDNEKKWELICDQERFQVKNPPAAYIQKLKSYVDTGGVSRKVAADWMSNLGFKRRVQESTQVLRELETSLRTNHIGWVQEFLNEENRGLDVLLEYLAFAQCSVTYDMESTDNGASNSEKNKPLEQSVEDLSKGPPSSVPKSRHLTIKLTPAHSRKALRNSRIVSQKDDVHVCIMCLRAIMNYQSGFSLVMNHPACVNEIALSLNNKNPRTKALVLELLAAVCLVRGGHDIILAAFDNFKEVCGEQHRFEKLMEYFRNEDSNIDFMVACMQFINIVVHSVENMNFRVFLQYEFTHLGLDLYLERLRLTESDKLQVQIQAYLDNIFDVGALLEDTETKNAVLEHMEELQEQVALLTERLRDAENESMAKIAELEKQLSQARKELETLRERFSESTAMGPSRRPPEPEKAPPAAPTRPSALELKVEELEEKGLIRILRGPGDAVSIEILPVAVATPSGGDAPTPGVPTGSPSPDLAPAAEPAPGAAPPPPPPLPGLPSPQEAPPSAPPQAPPLPGSPEPPPAPPLPGDLPPPPPPPPPPPGTDGPVPPPPPPPPPPPGGPPDALGRRDSELGPGVKAKKPIQTKFRMPLLNWVALKPSQITGTVFTELNDEKVLQELDMSDFEEQFKTKSQGPSLDLSALKSKAAQKAPSKATLIEANRAKNLAITLRKGNLGAERICQAIEAYDLQALGLDFLELLMRFLPTEYERSLITRFEREQRPMEELSEEDRFMLCFSRIPRLPERMTTLTFLGNFPDTAQLLMPQLNAIIAASMSIKSSDKLRQILEIVLAFGNYMNSSKRGAAYGFRLQSLDALLEMKSTDRKQTLLHYLVKVIAEKYPQLTGFHSDLHFLDKAGSVSLDSVLADVRSLQRGLELTQREFVRQDDCMVLKEFLRANSPTMDKLLADSKTAQEAFESVVEYFGENPKTTSPGLFFSLFSRFIKAYKKAEQEVEQWKKEAAAQEAGADTPGKGEPPAPKSPPKARRPQMDLISELKRRQQKEPLIYESDRDGAIEDIITVIKTVPFTARTGKRTSRLLCEASLGEEMPL [FMNL1]”, the values for the melting temperature in the data set with HeLa Kyoto [1] (cell cycle stage: G1/S) and with HeLa Kyoto [1] (cell cycle stage: mitosis) were 47.7 °C and 48.1 °C, respectively. Moreover, the “solubility in G1/S (log2)” value in the data set with HeLa Kyoto [2] stood at 0.507. Further, in the data set on HeLa Kyoto [3], the “solubility change mitosis (log2)” value is -0.0294. Besides, the thermal stability score with HeLa Kyoto [4] (setting [5]) amounted to 1.48; with HeLa Kyoto [4] (cell cycle stage: mitosis), 2.85.
Regarding “MSSLAVRDPAMDRSLRSVFVGNIPYEATEEQLKDIFSEVGSVVSFRLVYDRETGKPKGYGFCEYQDQETALSAMRNLNGREFSGRALRVDNAASEKNKEELKSLGPAAPIIDSPYGDPIDPEDAPESITRAVASLPPEQMFELMKQMKLCVQNSHQEARNMLLQNPQLAYALLQAQVVMRIMDPEIALKILHRKIHVTPLIPGKSQSVSVSGPGPGPGPGLCPGPNVLLNQQNPPAPQPQHLARRPVKDIPPLMQTPIQGGIPAPGPIPAAVPGAGPGSLTPGGAMQPQLGMPGVGPVPLERGQVQMSDPRAPIPRGPVTPGGLPPRGLLGDAPNDPRGGTLLSVTGEVEPRGYLGPPHQGPPMHHASGHDTRGPSSHEMRGGPLGDPRLLIGEPRGPMIDQRGLPMDGRGGRDSRAMETRAMETEVLETRVMERRGMETCAMETRGMEARGMDARGLEMRGPVPSSRGPMTGGIQGPGPINIGAGGPPQGPRQVPGISGVGNPGAGMQGTGIQGTGMQGAGIQGGGMQGAGIQGVSIQGGGIQGGGIQGASKQGGSQPSSFSPGQSQVTPQDQEKAALIMQVLQLTADQIAMLPPEQRQSILILKEQIQKSTGAS [CSTF2T]”, the melting temperature in the data set on HeLa Kyoto [1] (cell cycle stage: G1/S) worked out at 52.6 °C; with HeLa Kyoto [1] (cell cycle stage: mitosis), 51.9 °C. Also, the “solubility in G1/S (log2)” value with HeLa Kyoto [2] is -0.00517. For the same sequence, in the data set on HeLa Kyoto [3], the “solubility change mitosis (log2)” value worked out at 0.114. The thermal stability score in the data set with HeLa Kyoto [4] (setting [5]) is -0.131; with HeLa Kyoto [4] (cell cycle stage: mitosis), 0.0128.
As for “MEVVPAEVNSLLPEEIMDTGITLVDDDSIEAVIVSSPIPMETELEEIVNINSTGDSTATPISTEPITVYSNHTNQVAVNTTITKADSNTTVKPAFPSGLQKLGAQTPVTISANQIILNKVSQTSDLKLGNQTLKPDGQKLILTTLGKSGSPIVLALPHSQLPQAQKVTTQAQSGDAKLPPQQIKVVTIGGRPEVKPVIGVSALTPGSQLINTTTQPSVLQTQQLKTVQIAKKPRTPTSGPVITKLIFAKPINSKAVTGQTTQVSPPVIAGRVLSQSTPGTPSKTITISESGVIGSTLNSTTQTPNKIAISPLKSPNKAVKSTVQTITVGGVSTSQFKTIIPLATAPNVQQIQVPGSKFHYVRLVTATSASSSTQPVSQNPSTNTQPLQQAKPVVVNTTPVRMSVPIVSAQAVKQVVPKPINPTSQIVTTSQPQQRLIMPATPLPQIQPNLTNLPPGTVLAPAPGTGNVGYAVLPAQYVTQLQQSSYVSIASNSTFTGTSGIQTQARLPFNGIIPSESASRPRKPCNCTKSLCLKLYCDCFANGEFCNNCNCTNCYNNLEHENERQKAIKACLDRNPEAFKPKIGKGKEGESDRRHSKGCNCKRSGCLKNYCECYEAKIMCSSICKCIGCKNFEESPERKTLMHLADAAEVRVQQQTAAKTKLSSQISDLLTRPTPALNSGGGKLPFTFVTKEVAEATCNCLLAQAEQADKKGKSKAAAERMILEEFGRCLMSVINSAGKAKSDPCAMNC [LIN54]”, the melting temperature in the data set on HeLa Kyoto [1] (cell cycle stage: G1/S) amounted to 46.4 °C; in the data set on HeLa Kyoto [1] (cell cycle stage: mitosis), 50.1 °C. In the data set with HeLa Kyoto [2], the “solubility in G1/S (log2)” value was 0.15. Besides, the “solubility change mitosis (log2)” value in the data set on HeLa Kyoto [3] was -0.11. Further, the figures for the thermal stability score in the data set with HeLa Kyoto [4] (setting [5]) and in the data set on HeLa Kyoto [4] (cell cycle stage: mitosis) were 0.22 and 0.778, respectively.
With “MTANRLAESLLALSQQEELADLPKDYLLSESEDEGDNDGERKHQKLLEAISSLDGKNRRKLAERSEASLKVSEFNVSSEGSGEKLVLADLLEPVKTSSSLATVKKQLSRVKSKKTVELPLNKEEIERIHREVAFNKTAQVLSKWDPVVLKNRQAEQLVFPLEKEEPAIAPIEHVLSGWKARTPLEQEIFNLLHKNKQPVTDPLLTPVEKASLRAMSLEEAKMRRAELQRARALQSYYEAKARREKKIKSKKYHKVVKKGKAKKALKEFEQLRKVNPAAALEELEKIEKARMMERMSLKHQNSGKWAKSKAIMAKYDLEARQAMQEQLSKNKELTQKLQVASESEEEEGGTEDVEELLVPDVVNEVQMNADGPNPWMLRSCTSDTKEAATQEDPEQLPELEAHGVSESEGEERPVAEEEILLREFEERRSLRKRSELSQDAEPAGSQETKDSGSQEVLSELRVLSQKLKENHQSRKQKASSEGTIPQVQREEPAPEEEEPLLLQRPERVQTLEELEELGKEECFQNKELPRPVLEGQQSERTPNNRPDAPKEKKKKEQMIDLQNLLTTQSPSVKSLAVPTIEELEDEEERNHRQMIKEAFAGDDVIRDFLKEKREAVEASKPKDVDLTLPGWGEWGGVGLKPSAKKRRRFLIKAPEGPPRKDKNLPNVIINEKRNIHAAAHQVRVLPYPFTHHWQFERTIQTPIGSTWNTQRAFQKLTTPKVVTKPGHIINPIKAEDVGYRSSSRSDLSVIQRNPKRITTRHKKQLKKCSVD [UTP14A]”, the melting temperature with HeLa Kyoto [1] (cell cycle stage: G1/S) was 53 °C; in the data set with HeLa Kyoto [1] (cell cycle stage: mitosis), 52.8 °C. Also, in the data set on HeLa Kyoto [2], the “solubility in G1/S (log2)” value was -1.64. The “solubility change mitosis (log2)” value in the data set on HeLa Kyoto [3] was 0.895. The thermal stability score in the data set with HeLa Kyoto [4] (setting [5]) is -4.25; in the data set on HeLa Kyoto [4] (cell cycle stage: mitosis), -2.2.

(Values after the supplement of paper PMC5998384.)
